Measurements from publication PMC4200255.

Target: recombinant purified protein HSP70-1A (UniProt P0DMV8)
UniProt P0DMV8, sequence (P0DMV8 whole entry): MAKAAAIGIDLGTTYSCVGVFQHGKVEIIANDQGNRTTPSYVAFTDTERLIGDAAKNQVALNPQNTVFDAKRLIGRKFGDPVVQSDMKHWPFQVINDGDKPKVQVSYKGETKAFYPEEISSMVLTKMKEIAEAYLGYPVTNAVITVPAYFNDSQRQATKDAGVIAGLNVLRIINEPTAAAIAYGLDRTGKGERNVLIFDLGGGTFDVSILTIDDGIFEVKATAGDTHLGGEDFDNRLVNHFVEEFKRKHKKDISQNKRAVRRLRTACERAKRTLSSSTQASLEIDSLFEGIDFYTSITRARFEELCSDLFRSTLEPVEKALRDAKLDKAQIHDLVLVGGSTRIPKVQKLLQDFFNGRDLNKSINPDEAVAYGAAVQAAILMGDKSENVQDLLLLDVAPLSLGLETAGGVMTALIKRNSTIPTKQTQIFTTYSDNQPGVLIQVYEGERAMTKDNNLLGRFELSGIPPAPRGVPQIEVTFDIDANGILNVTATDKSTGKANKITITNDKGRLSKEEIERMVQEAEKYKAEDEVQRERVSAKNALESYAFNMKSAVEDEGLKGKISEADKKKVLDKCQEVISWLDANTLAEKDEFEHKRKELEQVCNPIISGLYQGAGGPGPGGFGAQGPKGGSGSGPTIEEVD

Row | Binder | stimulation of the ATPase activity of 0.7 μM HSP70 by 500 μM peptide (malachite green, 37 °C) [fold]
1 | RLIITPGTFKERIIKSITPETPTE [24-mer peptide of the serotonin transporter C terminus] | 4
2 | TPGTFKERIIKSITPETPTE [20-mer peptide of the serotonin transporter C terminus (lacks the first 4 amino acids RLII)] | 2
